In article doi:10.1101/2022.11.15.516651 (bioRxiv, 2022):
Positions count from the first letter of the chain named. Blank lines part the entries; values can stand above or below the binder they belong to.

Key:
[1] = molecular target: T1, FLAG-SLC3A2 N381D (human, UniProt P08195-1 66-630, N381D); assay: affinity purification with mass spectrometry
T1 sequence (looked up): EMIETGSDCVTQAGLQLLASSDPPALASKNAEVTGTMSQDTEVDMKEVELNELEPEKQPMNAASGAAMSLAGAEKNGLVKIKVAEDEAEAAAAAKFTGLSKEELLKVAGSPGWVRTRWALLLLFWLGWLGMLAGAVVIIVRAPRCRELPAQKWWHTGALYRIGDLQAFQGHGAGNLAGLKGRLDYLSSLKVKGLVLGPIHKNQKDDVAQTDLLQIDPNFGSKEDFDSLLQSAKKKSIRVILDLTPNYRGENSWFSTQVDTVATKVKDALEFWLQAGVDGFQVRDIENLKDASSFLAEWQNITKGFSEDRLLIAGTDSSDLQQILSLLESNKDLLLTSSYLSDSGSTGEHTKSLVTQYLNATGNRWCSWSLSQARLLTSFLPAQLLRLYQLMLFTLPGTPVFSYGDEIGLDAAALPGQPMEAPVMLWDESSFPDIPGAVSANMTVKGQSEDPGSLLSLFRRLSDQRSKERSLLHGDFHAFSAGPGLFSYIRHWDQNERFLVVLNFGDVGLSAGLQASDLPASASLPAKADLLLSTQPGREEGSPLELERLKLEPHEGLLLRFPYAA

[2] = molecular target: T2, FLAG-SLC3A2 N365D (human, UniProt P08195-1 66-630, N365D); assay: affinity purification with mass spectrometry
T2 sequence (looked up): T1 sequence (looked up) with N300D, D316N

- percent decrease of association against WTseq [1]: 67 ± 15%
- percent decrease of association against WTseq [2]: 67 ± 15%
B1: SLC7A11 (xc(-)) (natural protein, human (endogenous in HeLa), UniProt Q9UPY5 1-501, looked up)
chain: MVRKPVVSTISKGGYLQGNVNGRLPSLGNKEPPGQEKVQLKRKVTLLRGVSIIIGTIIGAGIFISPKGVLQNTGSVGMSLTIWTVCGVLSLFGALSYAELGTTIKKSGGHYTYILEVFGPLPAFVRVWVELLIIRPAATAVISLAFGRYILEPFFIQCEIPELAIKLITAVGITVVMVLNSMSVSWSARIQIFLTFCKLTAILIIIVPGVMQLIKGQTQNFKDAFSGRDSSITRLPLAFYYGMYAYAGWFYLNFVTEEVENPEKTIPLAICISMAIVTIGYVLTNVAYFTTINAEELLLSNAVAVTFSERLLGNFSLAVPIFVALSCFGSMNGGVFAVSRLFYVASREGHLPEILSMIHVRKHTPLPAVIVLHPLTMIMLFSGDLDSLLNFLSFARWLFIGLAVAGLIYLRYKCPDMHRPFKVPLFIPALFSFTCLFMVALSLYSDPFSTGIGFVITLTGVPAYYLFIIWDKKPRWFRIMSEKITRTLQIILEVVPEEDKL

- percent decrease of association against WTseq [1]: 44 ± 14%
- percent decrease of association against WTseq [2]: 44 ± 14%
B2: SLC7A5 (natural protein)
chain: not shown
